Reference: US20170024512A1

Molecular target: RecBCD (endogenous exonuclease of the E. coli cell-free extract) (E. coli) (UniProt P08394)
Assay: cell-based or functional assay

UniProt P08394, sequence (P08394 2-1180 limits assumed, chain 1 of 3): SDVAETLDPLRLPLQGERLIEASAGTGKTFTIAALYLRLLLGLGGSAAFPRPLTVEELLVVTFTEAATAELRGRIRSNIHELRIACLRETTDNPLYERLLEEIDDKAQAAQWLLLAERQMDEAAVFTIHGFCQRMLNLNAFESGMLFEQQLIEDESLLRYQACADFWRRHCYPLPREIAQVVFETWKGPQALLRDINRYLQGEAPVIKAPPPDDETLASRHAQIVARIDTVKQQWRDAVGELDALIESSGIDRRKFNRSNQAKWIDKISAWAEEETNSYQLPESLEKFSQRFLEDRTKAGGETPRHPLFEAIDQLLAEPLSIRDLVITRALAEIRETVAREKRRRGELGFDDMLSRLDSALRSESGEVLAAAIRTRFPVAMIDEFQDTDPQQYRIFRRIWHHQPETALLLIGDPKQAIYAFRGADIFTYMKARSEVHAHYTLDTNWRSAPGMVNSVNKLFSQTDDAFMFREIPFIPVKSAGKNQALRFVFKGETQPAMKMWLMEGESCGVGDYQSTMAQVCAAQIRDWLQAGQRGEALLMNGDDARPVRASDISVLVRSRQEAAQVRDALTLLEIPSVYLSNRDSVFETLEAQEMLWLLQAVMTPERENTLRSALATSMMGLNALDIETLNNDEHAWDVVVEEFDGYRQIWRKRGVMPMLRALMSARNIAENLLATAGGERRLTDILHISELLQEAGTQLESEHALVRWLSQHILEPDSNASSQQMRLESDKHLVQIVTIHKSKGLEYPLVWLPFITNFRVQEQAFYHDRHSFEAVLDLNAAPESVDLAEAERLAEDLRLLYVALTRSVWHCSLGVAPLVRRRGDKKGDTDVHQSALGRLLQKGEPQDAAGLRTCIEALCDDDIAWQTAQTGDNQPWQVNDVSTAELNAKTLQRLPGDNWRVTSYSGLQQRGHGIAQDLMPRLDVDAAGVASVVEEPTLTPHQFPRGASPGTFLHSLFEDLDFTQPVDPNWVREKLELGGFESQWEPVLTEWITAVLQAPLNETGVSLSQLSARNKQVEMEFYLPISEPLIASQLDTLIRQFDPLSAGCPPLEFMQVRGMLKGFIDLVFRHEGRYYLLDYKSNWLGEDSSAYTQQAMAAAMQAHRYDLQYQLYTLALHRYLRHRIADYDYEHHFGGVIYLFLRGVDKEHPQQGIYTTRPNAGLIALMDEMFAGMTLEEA
UniProt P08394, sequence (P07648 whole entry, chain 2 of 3, further chain): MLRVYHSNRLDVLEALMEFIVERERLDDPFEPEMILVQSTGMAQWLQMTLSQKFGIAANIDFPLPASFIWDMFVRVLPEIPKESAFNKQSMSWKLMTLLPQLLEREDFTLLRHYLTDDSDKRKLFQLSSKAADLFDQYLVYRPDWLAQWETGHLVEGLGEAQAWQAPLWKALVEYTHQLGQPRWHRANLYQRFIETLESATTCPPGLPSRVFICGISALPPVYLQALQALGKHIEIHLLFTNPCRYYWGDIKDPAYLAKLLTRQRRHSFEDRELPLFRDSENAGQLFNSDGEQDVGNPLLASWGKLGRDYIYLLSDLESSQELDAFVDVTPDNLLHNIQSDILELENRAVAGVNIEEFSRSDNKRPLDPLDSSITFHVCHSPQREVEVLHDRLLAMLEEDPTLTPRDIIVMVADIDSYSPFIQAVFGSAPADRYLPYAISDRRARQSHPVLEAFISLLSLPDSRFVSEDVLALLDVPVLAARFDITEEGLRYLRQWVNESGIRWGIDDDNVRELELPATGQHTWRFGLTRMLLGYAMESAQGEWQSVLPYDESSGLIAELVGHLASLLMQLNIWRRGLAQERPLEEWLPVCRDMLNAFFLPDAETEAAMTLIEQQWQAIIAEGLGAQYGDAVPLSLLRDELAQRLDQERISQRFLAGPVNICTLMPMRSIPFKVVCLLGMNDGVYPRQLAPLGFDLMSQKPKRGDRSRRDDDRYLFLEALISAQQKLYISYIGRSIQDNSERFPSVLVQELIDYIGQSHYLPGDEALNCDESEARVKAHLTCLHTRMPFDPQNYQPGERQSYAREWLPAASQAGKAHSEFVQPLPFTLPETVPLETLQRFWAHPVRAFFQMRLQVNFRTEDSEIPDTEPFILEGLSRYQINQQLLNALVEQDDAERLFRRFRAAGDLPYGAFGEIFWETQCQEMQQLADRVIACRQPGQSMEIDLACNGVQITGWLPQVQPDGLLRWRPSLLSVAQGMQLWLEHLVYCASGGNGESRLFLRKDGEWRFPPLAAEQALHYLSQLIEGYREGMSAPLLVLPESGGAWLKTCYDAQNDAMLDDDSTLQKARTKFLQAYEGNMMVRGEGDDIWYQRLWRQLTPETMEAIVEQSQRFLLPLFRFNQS
UniProt P08394, sequence (P04993 whole entry, chain 3 of 3, further chain): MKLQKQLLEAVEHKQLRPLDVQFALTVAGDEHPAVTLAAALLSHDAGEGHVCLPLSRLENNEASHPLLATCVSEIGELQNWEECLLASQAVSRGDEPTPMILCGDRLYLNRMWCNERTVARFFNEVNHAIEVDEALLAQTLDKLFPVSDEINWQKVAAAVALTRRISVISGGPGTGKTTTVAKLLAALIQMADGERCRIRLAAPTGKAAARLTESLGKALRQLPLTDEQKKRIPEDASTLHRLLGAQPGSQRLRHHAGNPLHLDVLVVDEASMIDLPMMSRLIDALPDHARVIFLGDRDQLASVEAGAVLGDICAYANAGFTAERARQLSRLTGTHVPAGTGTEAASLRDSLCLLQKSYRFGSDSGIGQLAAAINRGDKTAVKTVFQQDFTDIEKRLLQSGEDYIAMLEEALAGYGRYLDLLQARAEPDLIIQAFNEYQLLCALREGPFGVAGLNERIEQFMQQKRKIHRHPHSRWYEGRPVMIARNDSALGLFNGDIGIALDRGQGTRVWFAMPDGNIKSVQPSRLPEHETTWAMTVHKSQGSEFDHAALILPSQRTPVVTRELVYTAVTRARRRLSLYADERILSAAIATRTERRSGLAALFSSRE

Substance: gamS protein (GamS, a truncated form of lambda gam) (from UniProt P03702 1-98)
- protection of linear DNA from degradation in TX-TL (endpoint deGFP expression from 2 nM linear DNA); gamS working concentration: 3.5 µM
